Data from a protein production outcome set (Wang et al. 2014).

Assay: label from the status in PepcDB records
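Also: failed if final PepcDB status was selected cloned or expressed and not failed if soluble or beyond.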

Row | Sequence | protein production
1 | MAQIPFDLKHADFARLAEVGLRLPGLREVKTLTQTSWIEAPTTIIGTVVSGAELQVGAFCSLSGGTLNNVHIGRYSSIAAGTIIGVHEHPTSWLTTSRTSYWPQVYGWDELIAPDRAAEIRAGKRPFTRSCPITEIGHDVWIGQGCFIKSGVRIGHGSVIGARATVTKDVPPYSIVLGTPGRVVRTRVPEPLIERLLAVEWWRYSIYDLFAAPFDDVARALDVIEDRIAEGAIKPYEAPLVTPADLAEPLGLAARLAARFPRPLARAS | failed
2 | MSGEPDGERVIAGRYRLLSPLGEGGMGTVWRARDEVLRREVAVKEVRAPAGLSQPDVGRMYARLEREAWAAARISHPNVVTVYDVATDGGRPWIVMELVRGLSLADLLDAEGPLEPRRAALIGAEVLAALRAAHAAGVLHRDVKPANVLLANDGRVVLTDFGIARVEGSEALTMTGEVVGSPEFLAPERALGRTPGAASDLWSLGVLLYATVEGVSPFRQGTPLSTLRAIVDEAVPPPRRAGALGPVVEGLLRKDPAERLPAEEAERALRLVGAGGAPPGRGPRTGAPPSGAFAPTVVAAHPGPPTAPTPPMPVPAAGDTSAAGAPGAPGGRDRRARAVLLVGLAVLVLALAGLTYSLLDRSDGGGGTEGSGGSPGPGATSAATSGGAGEPSPPASSGTDGGQSGPAAQSVEVTVVGSRTHYSGACPPPHDRAPAFTATFTVGRLPAEVGYRWVTADGSVSDPGWRTLSFPSGGERSRQDGVVVTTHDDTGAFESAVRVEVRSPVRATSDAVAFSVTCGTGTETETGTGTPSGGASHSSSPSAPSSSPSA | failed
3 | MNRDLSSFKRTMNTLAVSSDVAFFNITLRFWIRRNDETREQGKFKPHTDLPRLQSFYLDYYQKNVMDVIKIIGNQYTILKEIESSAHSAAIRAIHAALPPHKINGDSRKQADSYIQHACDTAGVLFRVLELLSEDVQLPSEFLEADADVKQLAEIFRPYNIIPLYICGKYSMKRLPEY | failed
4 | MKKIRLSKFIKMIVVILFLISVAASFYFFHVAQVRDDKSFISNGQRKPGNSLYAYDKSFDKLLKQKIEMTNQNIKQVAWYVPAVKKTHKTAVVVHGFANSKENMKAYGWLFHKLGYNVLMPDNIAHGESHGQLIGYGWNDRENIIKWTEMIVDKNPSSQITLFGVSMGGATVMMASGEKLPSQVVNIIEDCGYSSVWDELKFQAKEMYGLPAFPLLYEVSTISKIRAGFSYGQASSVEQLKKNNLPALFIHGDKDNFVPTSMVYDNYKATAGKKELYIVKGAKHAKSFETEPEKYEKRISSFLKKYEK | failed
5 | MFQDVLVITVAVGRGGDGAVSFRREKFVPKGGPDGGDGGRGGSVYLRARGSVDSLSRLSKRTYKAEDGEHGRGSQQHGRGGEDLVIEVPRGTRVFDADTGELLADLTEEGQTVLVARGGAGGRGNMHFVSPTRQAPRFAEAGEEGEKRRLRLELMLIADVGLVGYPNAGKSSLLAAMTRAHPKIAPYPFTTLSPNLGVVEVSEEERFTLADIPGIIEGASEGKGLGLEFLRHIAGTRVLLYVLDAADDPFKTLKTLRKKVWAYDPGLLGRPSLVALNKVDLLEKEAVKALADALAREGLAVLPVSALTGAGLPALKEALHALVRSTPPPEMPKPVPRKEVQAGVEVVPVAEGVYEVRAPEVERYLARIKGDLMEAAGYLQEVFRRQGVEAALRAKGVRAGDLVRIGGLEFEYIPEV | not failed
6 | MPETSSMLESVVAYLQQAEPSSVYAVLFLSAYFENVIPPIPGDVPIALAGYLLTFSHITFVAALFWSTIGSVAGFMTVFLLSRFLGLKLYAVGECEARHKFAQSIHKLFPPSEMEVVRQKFSGHGYLAVVVNRFLFGSRAVICIVAGMLHLKIPLVLAASFVSSLLWNILLLSTGYLLGSNWDKIGQYAVLYTAPFTILFTGFIVWKVVAYLKKRKQQADGA | failed
7 | MAMYIRVKRMKTTYFIQCDPTETVLDVKQKLFALIEQPVNNQRLVLMSTEEVLEDSKSLADQKVENDAVVALTLKKD | not failed
8 | MVLTLDLADPAQPEHVFIVEDSRGATELKLYKSHYTIGKADSCDIRLHSIYASRQHATLVRFLTENGEVRYRLIDGDPETSRRSANGTYVNNRSITECDLKHYDQILFGADVKATYFYLSPQFRSLEHHHHHH | not failed
9 | MPRVDHGSPQAGPPAPCVGILLAGGQGRRFAAASGGQDKLLARLADGTAVAVRAAAALREATDAVVAVVRPESAVLAALLRGQGCHVLESEQAREGMGASLAAAARFLLAGQVPDMPERADVCLVALADMPWVRRDTLSAVRAAACADGITVPVHQGRRGHPVAFGRSLWGELAALRGDVGARELLRRHRVAAVEVDDPGVAADVDTPGDLAGDRALEHHHHHH | failed
10 | MKKKILIPVFASVMALSVSSIVNADEVNDSSQNKDDKTNTELNLGEYKEVKYKVAKIKDGVAIKIREEGQVQNIAYSGDEFTVLGTQGEWVKVKVEDGEGWLATRYVDISEGVGYTNADKVNLRKDKSESSEVIEELEKGSSLLVLEDNGDWLKVKDGETEGYVKSSYISDKAPVIEEPQVNPSIDQNVDSTNNNQQNNANTNQQNNNSNVPTANSNAVQAVLNLAYSKQGCPYVWGAEGPNTFDCSGFTQYVYRNAVGKNIPRTSKAQSKYGQTVSKANLQPGDLVFFTTNGSGSVSHVGIYVGGGNMIHSPSTGKTVSVTSINSSYYTARFVTAKRIL | failed
11 | PALPYAKSLAPVDLTDCSAQALETARQLGLLQRTKLIVMHVYDAAAAGMLNYAGVDKTSLDDYLVDTRTDAVRDLVRFLEPLRLDDVDYSTVVKEGAGPATDIIEAATELRPDLVVIGTHARRGAVRLLLSSVTEEVLRRLQRDILVVPVRDAGS | failed
12 | QEGIISLDTEGRVVLMNPKAEEMTGRSQNESCGLPIEDVFILWSPLQDKNQLVAINQCLAEGRHTLLPEGSQLLSSQGERQEIRCSASPIRDRDNLLTGAVVVFQDVTRARHEQRELQYQANHDMLTGLINRRRLEERLNQAISQLGQDEQHILCYVDLDYFKDVNDSAG | failed
13 | MKLALITDTSAYLPEAIENHEDVYVLDIPIIIDGKTYIEGQNLTLDQYYDKLAASKELPKTSQPSLAELDDLLCQLEKEGYTHVLGLFIAAGISGFWQNIQFLIEEHPNLTIAFPDTKITSAPQGNLVRNALMCSREGMDFDVIVNKIQSQIEKIEGFIVVNDLNHLVKGGRLSNGSAIIGNLLSIKPVLHFNEEGKIVVYEKVRTEKKALKRLAEIVKEMTADGEYDIAIIHSRAQDKAEQLYNLLAKAGLKDDLEIVSFGGVIATHLGEGAVAFGITPKN | not failed
14 | MPAITRRALSAGLIAAVALSVLPFAAQAAEELKIGYQKTGLPVIARQQGVIEKALEAKGVKVSWVEFTAGPPLVEALNVGSINVGWTGDAPPIFGQAAGSAIVYVAALPSNGKGEAIFTKPESGIKSVADLKGKKVGVGKGTSAHNLLVAALEKNGLKLSDIDVTYLSPADAAAAFASDKIDAWAVWDPFYAIAETRYKPVTLARTSDVLDVKTYFLANRDYAKSHADTINTNVGALGEAAKWSAANRDKVAAALHEVTGVPLEAQTLAANRSEFGITRIDDKIVASQQETADRFYRLGLIPKQISIKDAVWSGATN | failed
15 | GHMYETIRYEVKGQVAWLTLNRPDQLNAFTEQMNAEVTKALKQAGADPNVRCVVITGAGRAFCAGEDLSGVTEEMDHGDVLRSRYAPMMKALHHLEKPVVAAVNGAAAGAGMSLALACDFRLLSEKASFAPAFIHVGLVPDAGHLYYLPRLVGRAKALELAVLGEKVTAEEAAALGLATKVIPLSDWEEEVKQFAERLSAMPTKAIGLIKRLLRESEETTFDRYLEREAECQRIAGLTSDHREGVKAFFEKRKPLFQGN | not failed
16 | MESSAINIAIVVVYLLAMLAFGWWGKSRTKNNSDFLVAGRRLGPFLYTGTMAAVVLGGASTVGGVGLGYKFGISGMWLVVAIGSGVLLLSLLFAGTIQKLKIYTVSQMLTLRYGSTATQTSGIVMLAYTLMLCATSTGAYATIFVVLFGWERWLAIAIGGAIVLVYSTIGGMWSITLADQVQFVIKTVGIFFLMLPFALNAAGGLDGIRARVDESFFDIGGIGLQTIITYFVVYTLGLLIGQDIWQRVFTAKTPTVARWGGATAGVYCILYGFAGALIGMAASVALSGVEIAAKDDVYAEVATRLLPIGIGGLVLAAAVAAMMSTASGALIAAATVARADVMPFVASWFGKKVDTSDSDNPEHDVKANRYWVLGLGIVAIIIAISTKDVVAALTIAYDILVGGLLVAIIGGLVWKRGTGIAAAWSMAAGSVITLGTMIILEINAEVPLDGIYANEPIYFGLIASAVVYVVVSLLSKPTDPAVMKAWTDRVAGTRVAEEELTTPAS | failed
17 | GGTSNEVAQFLSKENQVIVRMRGLPFTATAEEVVAFFGQHCPITGGKEGILFVTYPDGRPTGDAFVLFACEEYAQNALRKHKDLLGKRYIELFRSTAAEVQQVLNRFSSA | not failed
18 | MSRKPLIAGNWKMNLNHYEAIALVQKIAFSLPDKYYDRVDVAVIPPFTDLRSVQTLVDGDKLRLTYGAQDLSPHDSGAYTGDVSGAFLAKLGCSYVVVGHSERRTYHNEDDALVAAKAATALKHGLTPIVCIGEHLDVREAGNHVAHNIEQLRGSLAGLLAEQIGSVVIAYEPVWAIGTGRVASAADAQEVCAAIRKELASLASPRIADTVRVLYGGSVNAKNVGDIVAQDDVDGGLVGGASLDGEHFATLAAIAAGGPLP | not failed
19 | MGISPDAASKLYTVKFQPDPIDKKGWSVIDFNNCCTQDGGWYLNMGWGVESLIDNNPGTQWLCRWDVKEPLPYYFVFDMGKEYTLFRFGFANPVAPAAHVWAGTSKAGYVEASIDNENWVKLKDWTSPKIGEPNVNMDVPATQARYIRFVITDTYPTYDGLRVSLGEVYAWGLEHHHHHH | not failed
20 | MKVYFDDIYVSTARQFELVDITDQVEQIVEKSGIKNGICLIFVAHSTAAIVANEHERGLMEDILTKIKEFTEPSRSWKHNLIDDNAHAHLGATFLGAERVFPVREGKLVRGTWQNIFLVELDGPRSERHITVEILGE | not failed
21 | MIELEGVPELVDPVMVAAFEGWNDAGDAASTAVAHLDREWKGEVFAALDAEDYYDFQVNRPTVFMEDGVRKITWPTTRLSVVRVGGDKPRDLVLVRGIEPSMRWRSFCNELLGFAHELGVELVVVLGALLGDTPHTRPVPISGTTSDADLARRMDLEETKYEGPTGIVGILQEACTHAGVPAVSLWAAVPHYVSQPPNPKATLALLNRLEDLIGVRVPLGELPEDARAWQVGVDQLAAEDTEVAEYVQSLEEARDTA | not failed
22 | MEKYIFWVTAIFQIGVFALMLYYLFIALFGFYKKKDTKTFEPQKKFAMLVAAHNEEVVIENLVESLKHLDYPKELYDIFVIADNCTDNTAKIARAAGANVFERFNKEKRGKGFALEWMFDKIFKMDTHYDGIAVFDADNLVDKNFLKEMNNKMCEGFKVVQGYIDSKNPQDSWITESYAIAFTSANRMLQLAKSNIGLSAQIGGTGFVIDTATLKKLGWGATCLTEDLEFSCKLILNGEKVGWAHDAIIYDEKPLTLKASWNQRKRWMQGFADVATRYGMKLLKKSIKDRSLVAFDCTLYVMQPFVTLATGLAGLLTFVQIRAVDGLGIFVISYLFNATVWQLFCVFQFLLTPFALLFDKKMSGKLFVVLGLYACNVFIQPYLINQLGILDNIMLLTLFNVAYIGIFLIGTLLFLGKRNFQIFYRYLIYPLYILTWIPITIQGIIDKDKKEWSHTKHVRQIGIYEV | failed
23 | MQVHYYGGTAEAAGTSEETVETPTGLSVNQLLDHLRNLHPGLGRLLGVCTLFVDGSAVRGEQIVPARAQVEVLPPFAGG | failed
24 | MFTLRELPFAKDSMGDFLSPVAFDFHHGKHHQTYVNNLNNLIKGTDFEKSSLFDILTKSSGGVFNNAAQIYNHDFYWDCLSPKATALSDELKGALEKDFGSLEQFKEDFIKSATTLFGSGWNWVAYNLDTQKIEIIQTSNAQTPVTDKKVPLLVVDVWEHAYYIDHKNARPVYLEKFYEHINWHFVSQCYEWAKKEGLGSVDYYINELVHKKA | failed
